Reference: publication PMC9946822, “Widely conserved AHL transcription factors are essential for NCR gene expression and nodule development in Medicago”

What was measured:
Assay in all cases: EMSA; 0-300 ng protein titration; EMSA as in Chen (ref. 37), 10 ng probe and 200 ng protein (titration 0-300 ng), SYBR Gold stain; binding buffer, pH and temperature not stated; protein eluted in BS/THES (22 mM Tris-HCl pH 7.5, 4.4 mM EDTA, 8.9% sucrose, 62 mM NaCl, 10 mM HEPES, 5 mM CaCl2, 50 mM KCl, 12% glycerol) with 150 mM imidazole
Conditions in all cases: protein: recombinant; tags: His (pET28a); blunt
MtAHL1 = MtAHL1 (Medicago truncatula, UniProt G7JGG2 1-296)
Chain of MtAHL1 (G7JGG2 entry or part of it): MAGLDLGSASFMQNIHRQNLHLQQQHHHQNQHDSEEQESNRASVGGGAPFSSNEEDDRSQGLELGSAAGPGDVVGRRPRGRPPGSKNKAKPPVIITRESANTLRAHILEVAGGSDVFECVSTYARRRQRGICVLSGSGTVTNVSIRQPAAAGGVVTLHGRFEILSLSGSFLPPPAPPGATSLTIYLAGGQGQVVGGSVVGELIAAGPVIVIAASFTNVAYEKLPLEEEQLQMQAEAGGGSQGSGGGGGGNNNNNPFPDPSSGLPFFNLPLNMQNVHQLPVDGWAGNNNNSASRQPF

MtAHL2 = MtAHL2 (Medicago truncatula, UniProt G7KSI4 1-269)
Chain of MtAHL2 (G7KSI4 entry or part of it): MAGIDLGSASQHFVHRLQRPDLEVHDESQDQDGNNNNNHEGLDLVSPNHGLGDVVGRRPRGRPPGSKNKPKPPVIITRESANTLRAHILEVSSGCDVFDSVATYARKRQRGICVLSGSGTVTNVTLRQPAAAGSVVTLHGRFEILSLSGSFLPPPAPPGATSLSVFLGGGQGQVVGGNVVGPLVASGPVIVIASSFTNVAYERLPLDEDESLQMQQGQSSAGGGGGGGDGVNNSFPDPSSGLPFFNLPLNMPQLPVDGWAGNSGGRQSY

GmAHL1 = GmAHL1 (Glycine max, UniProt C6TMY6 1-268)
Chain of GmAHL1 (C6TMY6 entry or part of it): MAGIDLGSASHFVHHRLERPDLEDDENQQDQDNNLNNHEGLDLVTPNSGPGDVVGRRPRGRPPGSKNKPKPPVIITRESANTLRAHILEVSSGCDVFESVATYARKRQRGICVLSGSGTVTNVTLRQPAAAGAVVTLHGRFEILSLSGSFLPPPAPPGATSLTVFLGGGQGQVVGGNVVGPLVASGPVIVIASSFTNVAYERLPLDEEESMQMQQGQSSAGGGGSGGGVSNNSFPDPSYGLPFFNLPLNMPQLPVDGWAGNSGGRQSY

Measured: binding result

B1: probe H0 (dsDNA)
DNA 1: TTAATAATTATTTTAATTTTCAAAAAGTATTAATTAC
DNA 2: GTAATTAATACTTTTTGAAAATTAAAATAATTATTAA
binds: all assays above
